This note sets out measurements from publication PMC10441885.

In this assay the target is recombinant PsCAT1 fusion protein (His6-SUMO-PsCAT1 without the signal peptide, from pET15b-SUMO-PsCAT1) (Puccinia striiformis f. sp. tritici). Put plainly: SEC.

Turning to “recombinant PsCAT1 fusion protein (His6-SUMO-PsCAT1 without the signal peptide, from pET15b-SUMO-PsCAT1) (enzyme)”, the stoichiometry N is 23.
